Results taken from publication PMC4913355 (Methods in enzymology, 2015).

B1: unfolded OmpW, deuterated (natural protein, UniProt P0A915 22-212, looked up)
chain: HEAGEFFMRAGSATVRPTEGAGGTLGSLGGFSVTNNTQLGLTFTYMATDNIGVELLAATPFRHKIGTRATGDIATVHHLPPTLMAQWYFGDASSKFRPYVGAGINYTTFFDNGFNDHGKEAGLSDLSLKDSWGAAGQVGVDYLINRDWLVNMSVWYMDIDTTANYKLGGAQQHDSVRLDPWVFMFSAGYRF
modifications: partially deuterated (estimated 50 % ± 5 %)
B2: Skp (natural protein, E. coli, UniProt P0AEU7 21-161, looked up)
chain: ADKIAIVNMGSLFQQVAQKTGVSNTLENEFKGRASELQRMETDLQAKMKKLQSMKAGSDRTKLEKDVMAQRQTFAQKAQAFEQDRARRSNEERGKLVTRIQTAVKSVANSQDIDLVVDANAVAYNSSDVKDITADVLKQVK
B3: unfolded OmpA, deuterated (natural protein, E. coli, UniProt P0A910 22-346, looked up)
chain: APKDNTWYTGAKLGWSQYHDTGFINNNGPTHENQLGAGAFGGYQVNPYVGFEMGYDWLGRMPYKGSVENGAYKAQGVQLTAKLGYPITDDLDIYTRLGGMVWRADTKSNVYGKNHDTGVSPVFAGGVEYAITPEIATRLEYQWTNNIGDAHTIGTRPDNGMLSLGVSYRFGQGEAAPVVAPAPAPAPEVQTKHFTLKSDVLFNFNKATLKPEGQAALDQLYSQLSNLDPKDGSVVVLGYTDRIGSDAYNQGLSERRAQSVVDYLISKGIPADKISARGMGESNPVTGNTCDNVKQRAALIDCLAPDRRVEIEVKGIKDVVTQPQA
modifications: partially deuterated (estimated 50 % ± 5 %)

How the values were obtained:
Skp = target: B2; test: contrast variation small-angle neutron scattering
[1] = target: the molecule itself; test: small-angle neutron scattering

Row | Binder | stoichiometry N (Skp) [Skp monomers per uOMP] | stoichiometry N [1]
1 | B1 | 3 | –
2 | B2 | – | 3
3 | B3 | 3 | –
